These results are taken from article PMC9881579.

The target of assay [1] is LHD206A. The assay can be described thus: BLI; biotinylated protomer on streptavidin biosensors, designed partner in solution; 25 °C; 10 mM HEPES pH 7.4, 150 mM NaCl, 3 mM EDTA, 0.05% Surfactant P20, 1 mg/ml BSA; steady-state fit, 1:1 model.
The target of assay [2] is LHD206A. As to the kind of experiment: BLI; biotinylated protomer on streptavidin biosensors, designed partner in solution; 25 °C; 10 mM HEPES pH 7.4, 150 mM NaCl, 3 mM EDTA, 0.05% Surfactant P20, 1 mg/ml BSA; global kinetic fit, 1:1 model.
Assay [3] concerns the target LHD206A, split luciferase construct. As to the kind of experiment: split reporter (BiFC, NanoBiT); smBiT:lgBiT equilibrium binding in E. coli lysate; one component at 1 nM, the other titrated; overnight at room temperature; 20 mM sodium phosphate, 100 mM NaCl, pH 7.4, 0.05% Tween 20.

B1: LHD206B (designed binder)
chain: GRQEKVLKSIEETVRKMGVTMETHRSGNEVKVVIKGLHKSQQEQLLKDVLKTANKQGVNVHISFRGDTVTIRVRE
modifications: not checked
Consider B1, for which, in the assay with LHD206A [1], the Kd worked out at 8.4 nM. In the assay with LHD206A [2], this molecule came in with a Kd of 2.8 nM, a koff of 0.00075 s⁻¹ and a kon of 270000 M⁻¹ s⁻¹.

B2: LHD206B, split luciferase construct (designed binder)
chain: GRQEKVLKSIEETVRKMGVTMETHRSGNEVKVVIKGLHKSQQEQLLKDVLKTANKQGVNVHISFRGDTVTIRVRE
modifications: here or on the partner: Strep-tag, sfGFP, GS-linker and split luciferase fragment left out; protomer taken from the unfused monovalent entry / Strep-tag, sfGFP, GS-linker and split luciferase fragment left out; protomer take
In assay [3], B2 displayed a Kd of 11 nM.
